Assay results published in patent US6153382.
pIC50, pKd: −log10 of the molar value.

Tests used:
[1] = target: HIV-1 Rev (Human immunodeficiency virus 1) (UniProt P04618); experiment: filter
[2] = target: HIV-1 Rev (Human immunodeficiency virus 1) (UniProt P04618); experiment: competition; settings: D1/2 vs labelled RRE; 17 nM rev

## R7 full-length RRE transcript (238 nt)
[1]; 50% RNA bound at 10 nM rev, 43 mM Tris pH 8.0, 50 mM KCl, 4 C
  pKd: 8.52
[1]; Scatchard high-affinity site, 50 mM KCl
  pKd: 8.70
[1]; Scatchard high-affinity site, 200 mM KCl
  pKd: 8.40
[2]
  pIC50: 8.70
